experiment: yeast display, Sf9 membrane polyspecificity reagent, FACS + sequencing; frameworks hold sequencing errors
How it was run: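 Genes from sorted yeast were amplified by colony PCR, read by MiSeq 2 × 250 sequencing and filtered on CDR length. These cells carried a synthetic nanobody library in Saccharomyces cerevisiae BJ5465 and were sorted by FACS into low and high (top ~1%) gates on anti-HA and streptavidin fluorescence. Polyreactivity is labelled according to the gate of origin.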

Row | Sequence | polyreactivity (PSR sort gate)
1 | QVQLVETGRGLVQAGGSLRLSCAASGRIFRGYAMGWYRQAPGKERELVAAINWSGGNTYYADSVKGRFTISRDNAKNTVYLQMNSLKPEDTAVYYCATLGYLGGGYWGQGTQVTVSS | high polyreactivity
2 | QVQLVETGRGLVQAGGSLRLSCAASGRIFYANAMGWYRQAPGKERELVAAISRTGGSTYYADSVKGRFTISRDNAKNTVYLQMNSLKPEDTAVYYCNALSGVYGYDDWGQGTQVTVSS | high polyreactivity
3 | QVQLVETGVGLVQAGGSLRVICAASGLTFYLYAMGWNRQAPGKERELAAAISSTGITNFADSVKGRFTISRDNAKNTVYLQMTSLKPEDTAVYYCNADYHPFFFEFNYWGKGTQVTVSS | high polyreactivity
4 | QVQLVETRGGLVQAGVSLRLICSASGSTFAPKSIGLYRQAPGKERELVAGLSWGDSTYYADSVKGRFTISRDNAKNTVYLQMISLKPEDTAVYFCAVRWVWNPCGIQGDWAVDYDYWGQGTQVTVSS | low polyreactivity
5 | QVQLVEYQGGLVQAGGSLRLSSAASGIIFDQYAMGWYRQAPGKEREVVAAITYSGGCTYYADSVNGRFTISRDNEKNTVYLQMNSLKPEDTAVYYCADLFGYSLYDAQYDYWGQGTQVTVSS | low polyreactivity
6 | QVQLVGSGGALVQAGGSLRLSCAASGRTFSYYAMGWYRQAPGKERELVASIRSSRTSTYYADSVKGRFTISRDNAKNTVYLQMNSLKPEDTAVYSCAKRYFTWRSTYNYWGQGTKVTVSS | high polyreactivity
7 | QVQLVGSGGGLVQAGGSLRLSCAASGRIFRYNAMGWYRQAPGKEREFVATISWRGGNTYYADSVKGRFTISRDNAKNTVYLQMNSLKPEDTAVYYCATRRLYSKSWYYYWGQGTQVTVSS | high polyreactivity
8 | QVQLVGSGGGLVQAGSSLRLTCAASGLIFTYYAMGWYRQAPGKEREFVAVIDSSGDSTNYADSVKGRFTISRDNAKNTVYLQMNSLKPEDTAVYYCNAYNWSYIYFPFVQEYRTYDYWGQGTQVTVSS | low polyreactivity
9 | QVQLVKSGGGLVQAGGSLRLSCAASGFTFFVYAMGWYRPAPGKERELVAAITSSGGSTYYADSVKGRFTISRDNAKNTVYLQMNSLKPEDTAVYYCAADRYSYLGYPYEYEYWGQGTQGTVSS | low polyreactivity
10 | QVQLVKSGGGLVQAGGSLRLSCAASGFTIYYYAMGWYRQAPGKEMELVASITSGGSTYYADSVKGRFTISRDNAKNTVYLQMNSLKPEDTAVYYCAKTRFHSKEGDYWGQGTQVTVSS | low polyreactivity
11 | QVQLVKSGGGLVQAGGSLRLSCAASGIIFWLYDMGWYRQAPGKERELVAVITWSGDSTYADSVKGRFTISRDNAKNTVYLQMNSLKPEDTAVYYCAAREYYRKPYDHWGQGTQVTVSS | high polyreactivity
12 | QVQLVKSGGGLVQAGGSLRLSCAASGSTFYNAMGWYRQAPGKEREWVAAISIGGSTYYADSVKGRFTISRYNAKNTVYLQMNSLKPEDTAVYYCNADLYYWLRYYDRNDYWGQGTQVTVSS | low polyreactivity
13 | QVQLVKSGGGLVQAGGSLRLSCAASGTFRLYAMGWYRQAPGKERDFVAAITYGGVGTYYADSVKGRFTISRDNAKHTVYLQMNSLNPEDTAVSYCAAELYLTDTDVEYSYWGQGTQVTVSS | low polyreactivity
14 | QVQLVQSAGGLVQAGGSLRLSCAASGFTFVKYAMGWYRQAPGKERELLAVISRRGGSTYYADSVKGRFTISRDNAKNTVYLHMNSLKPEDTAVYYCAAVYYLYSAWRYDYWGQGTQVTVSS | high polyreactivity
15 | QVQLVQSGGCLVQAGGSLRLSCAASGRIFGYYAIGWYRQAPGKERELVAGISRSGGSTYYADSVKWRFTISRDKAKNTVYLQMNSLKPEDTAVYYCAARFNGQTYYYWGQGTQGTVSS | high polyreactivity
16 | QVQLVQSGGGIVQAGGSLRISCAASGFIFSSYDMGWYRQAPGKESELVAAISWTGGSTYYADSVKARFTISRDNAKNTVYLQMTSLKPEETAVYYCNAYPYFLVRIMDSWGQGTEVTVSS | high polyreactivity

Row | Sequence | polyreactivity (PSR sort gate)
17 | QVQLVQSGGGLVEAGGSLRLSCAASGSNFWANAMGWYRQAPGKERELVAGITLNGGLTYYADSVKGRFTISRDNAKNTVYLQMYSLKPEETEVYFCAAAYPTDRHYYWGLGTQVTVSS | low polyreactivity
18 | QVQLVQSGGGLVQAAGSLRLICAASGRTFPANAMGWYRQAPGKERELVAGITKSGGNTYYADSVKGRFTISRDNAKNTVYLQMNSLKPEDTAVYYCATRYYPLVNYLGYDYWGQGTQVTVSS | low polyreactivity
19 | QVQLVQSGGGLVQAGGSLRISCAPSGLTCNGNAMGWYRQAPGKEREMVAAISSSGGTTYYADSVKGRFTISRDNAKNTVYLEMNSLKPEDTAVSYCAARPSGGYESTRTRDYWGQGTQVNVSS | low polyreactivity
20 | QVQLVQSGGGLVQAGGSLRLSCAASGIIFFKYAMGWYRQAPGKERELVAAITESTSSTYYADSVKGRFTISRDNAKNTVYLEMNSMKTEDTAVYYCAARVSQWLPYGGYSRYYYWGQGTQVTVSS | high polyreactivity
21 | QVQLVQSGGGLVQAGGSLRLSCAASGLTNYRYAMGWNRQAPGQEREFVAGISASGGGSSYADSVKGRFTISRDNAKNTVYLQMNRLKPEDTAVYYCAATTTFFVWQGHNYCGQGTQVTVSS | low polyreactivity
22 | QVQLVQSGGGLVQAGGSLRLSCAASGNIISIYVMGWYRQAPGKERELVAAITSGGSTNYADSVKGRFTISRDNAKNTVYFQMNSLKPEDTAVYYCAAERNADDESYYWGQGSQVTVSS | low polyreactivity
23 | QVQLVQSGGGLVQAGGSLRLSCAASGRTFRIYAMGWYRQAPWKEREFVAGITRSDGSTYYADSVKGRFTISRDNAKNTVYLQMISLKPEDTAVYYCNVEPYSHYRSTEDYWGQGTQVTVSS | high polyreactivity
24 | QVQLVQSGGGLVQAGGSLRLSCAASGRTFYRNGMGWYREAPGKDREFVAAINYRGGSTNYADSVKGRFTITRDNAKITVYLQMNSLKPEDTAVYYCATRIFRAALRFDYWGQGTQVTVSS | high polyreactivity
25 | QVQLVQSGGGLVQAGGSLRLSCAASGRTFYYAMGWYRQAPGKERELVARITRRGGSTYYADSVKGRFTISRDNAKNTVYLQMNSLKPEDTAVYYCNARWHRYLLATYGYWVQGTQVTVSS | high polyreactivity
26 | QVQLVQSGGGLVQAGGSLRLSCAASGSIFTSYAMGWYRQAPGKERELVAAINGSGGSTFYADSVKGRFTISRDHAKNTVYLQMNSLNPEYTAVYYCYTVGPRGTTYDDWGQGSQVTVSS | low polyreactivity
27 | QVQLVQSGGGLVQAGGSLRLSCAASGYILNPYAMGWYRPAPGKERELVAAITSGTITYYADSVKGRFTITRDNAKNTVYLQMNSLKPEDTAVYYCAADSWAHYESYDYWGQGTQVTVSS | low polyreactivity
28 | QVQLVQSGGGLVQAGGSLRLSSAASGSTFWANAMGWYRQAPGKERELVAAISVRGGNTYYADSVKGRFTISRDNAKNTVYLQMNSLKPEDTAVYYCAARPISWTSYYDYWGQGTQVSVSS | high polyreactivity
29 | QVQLVQSGGGLVQARGILRLSCPPSGINFWYNAMGWYSQAQGKERELVASISTGGRTYYADSVKGRFTFSRDNAKNTVYLQMNSLKPVDTAVYYCAAASRVGFLYYYWGQGSQVTVSS | low polyreactivity
30 | QVQLVQSGGGLVQEGGSLRLSCYASGRIFSIYTLGWYRQAPGKERELVAAIRWSGGSTYYADSVKWRLTISRDNAKNTVYLQMNSLKPEDTAVYYCARQSVLGYRSYGPFPKYYYWGQGTQVTVSS | high polyreactivity
31 | QVQLVQSGGGVVQAGGSLRLSCAASGRIFNTNAMGWYRHAPGKERELVAGITDSGDSTYYADSVKGRFTISRDNAKITVYLQMYSLKPEDSAVYYCATDPASPYIYDFWGLGTQVTVSS | low polyreactivity
32 | QVQLVQTGRGLVQAGGSLRLICAASANIFYTNAMGWYRQAPGKERELVAAISGSGGRTYYADSVKGRFTISRDNAKNTVYLQMNSLKPEDTAVYYFNAVRRDYYDRTYGYWGQGTQVTVSS | low polyreactivity
